Earlier results on one substance are cited in PMC10299984 (Diabetes Therapy, 2023).

The conditions of the data set: 36 healthy participants.

insulin glargine [iGlar]: the INS-tmax is recorded as 12 h.
